Test results from PMC3708604 (Methods in molecular biology (Clifton, N.J.), 2013).

B1: SRC1 NR Box 2 peptide (peptide)
peptide: LTERHKILHRLLQE
B2: SRC1 NR Box 4 peptide (peptide)
peptide: QAQQKSLLQQLLTE
B3: Full-length FLAG-epitope-tagged human ERα (receptor, UniProt P03372 1-595, looked up)
chain: MTMTLHTKASGMALLHQIQGNELEPLNRPQLKIPLERPLGEVYLDSSKPAVYNYPEGAAYEFNAAAAANAQVYGQTGLPYGPGSEAAAFGSNGLGGFPPLNSVSPSPLMLLHPPPQLSPFLQPHGQQVPYYLENEPSGYTVREAGPPAFYRPNSDNRRQGGRERLASTNDKGSMAMESAKETRYCAVCNDYASGYHYGVWSCEGCKAFFKRSIQGHNDYMCPATNQCTIDKNRRKSCQACRLRKCYEVGMMKGGIRKDRRGGRMLKHKRQRDDGEGRGEVGSAGDMRAANLWPSPLMIKRSKKNSLALSLTADQMVSALLDAEPPILYSEYDPTRPFSEASMMGLLTNLADRELVHMINWAKRVPGFVDLTLHDQVHLLECAWLEILMIGLVWRSMEHPGKLLFAPNLLLDRNQGKCVEGMVEIFDMLLATSSRFRMMNLQGEEFVCLKSIILLNSGVYTFLSSTLKSLEEKDHIHRVLDKITDTLIHLMAKAGLTLQQQHQRLAQLLLILSHIRHMSNKGMEHLYSMKCKNVVPLYDLLLEMLDAHRLHAPTSRGGASVEETDQSHLATAGSTSSHSLQKYYITGEAEGFPATV
B4: FLAG-epitope-tagged human ERβ (receptor, UniProt Q92731 1-530, looked up)
chain: MDIKNSPSSLNSPSSYNCSQSILPLEHGSIYIPSSYVDSHHEYPAMTFYSPAVMNYSIPSNVTNLEGGPGRQTTSPNVLWPTPGHLSPLVVHRQLSHLYAEPQKSPWCEARSLEHTLPVNRETLKRKVSGNRCASPVTGPGSKRDAHFCAVCSDYASGYHYGVWSCEGCKAFFKRSIQGHNDYICPATNQCTIDKNRRKSCQACRLRKCYEVGMVKCGSRRERCGYRLVRRQRSADEQLHCAGKAKRSGGHAPRVRELLLDALSPEQLVLTLLEAEPPHVLISRPSAPFTEASMMMSLTKLADKELVHMISWAKKIPGFVELSLFDQVRLLESCWMEVLMMGLMWRSIDHPGKLIFAPDLVLDRDEGKCVEGILEIFDMLLATTSRFRELKLQHKEYLCVKAMILLNSSMYPLVTATQDADSSRKLAHLLNAVTDALVWVIAKSGISSQQQSMRLANLLMLLSHVRHASNKGMEHLLNMKCKNVVPVYDLLLEMLNAHVLRGCKSSITGSECSPAEDSKSKEGSQNPQSQ

How the values were obtained:
[1] = target: B3; experiment: fluorescence polarisation
[2] = target: Full-length FLAG-epitope-tagged human SRC1a (human, UniProt Q15788-1 1-1441); experiment: fluorescence polarisation
Full-length FLAG-epitope-tagged human SRC1a, sequence (Q15788 whole entry): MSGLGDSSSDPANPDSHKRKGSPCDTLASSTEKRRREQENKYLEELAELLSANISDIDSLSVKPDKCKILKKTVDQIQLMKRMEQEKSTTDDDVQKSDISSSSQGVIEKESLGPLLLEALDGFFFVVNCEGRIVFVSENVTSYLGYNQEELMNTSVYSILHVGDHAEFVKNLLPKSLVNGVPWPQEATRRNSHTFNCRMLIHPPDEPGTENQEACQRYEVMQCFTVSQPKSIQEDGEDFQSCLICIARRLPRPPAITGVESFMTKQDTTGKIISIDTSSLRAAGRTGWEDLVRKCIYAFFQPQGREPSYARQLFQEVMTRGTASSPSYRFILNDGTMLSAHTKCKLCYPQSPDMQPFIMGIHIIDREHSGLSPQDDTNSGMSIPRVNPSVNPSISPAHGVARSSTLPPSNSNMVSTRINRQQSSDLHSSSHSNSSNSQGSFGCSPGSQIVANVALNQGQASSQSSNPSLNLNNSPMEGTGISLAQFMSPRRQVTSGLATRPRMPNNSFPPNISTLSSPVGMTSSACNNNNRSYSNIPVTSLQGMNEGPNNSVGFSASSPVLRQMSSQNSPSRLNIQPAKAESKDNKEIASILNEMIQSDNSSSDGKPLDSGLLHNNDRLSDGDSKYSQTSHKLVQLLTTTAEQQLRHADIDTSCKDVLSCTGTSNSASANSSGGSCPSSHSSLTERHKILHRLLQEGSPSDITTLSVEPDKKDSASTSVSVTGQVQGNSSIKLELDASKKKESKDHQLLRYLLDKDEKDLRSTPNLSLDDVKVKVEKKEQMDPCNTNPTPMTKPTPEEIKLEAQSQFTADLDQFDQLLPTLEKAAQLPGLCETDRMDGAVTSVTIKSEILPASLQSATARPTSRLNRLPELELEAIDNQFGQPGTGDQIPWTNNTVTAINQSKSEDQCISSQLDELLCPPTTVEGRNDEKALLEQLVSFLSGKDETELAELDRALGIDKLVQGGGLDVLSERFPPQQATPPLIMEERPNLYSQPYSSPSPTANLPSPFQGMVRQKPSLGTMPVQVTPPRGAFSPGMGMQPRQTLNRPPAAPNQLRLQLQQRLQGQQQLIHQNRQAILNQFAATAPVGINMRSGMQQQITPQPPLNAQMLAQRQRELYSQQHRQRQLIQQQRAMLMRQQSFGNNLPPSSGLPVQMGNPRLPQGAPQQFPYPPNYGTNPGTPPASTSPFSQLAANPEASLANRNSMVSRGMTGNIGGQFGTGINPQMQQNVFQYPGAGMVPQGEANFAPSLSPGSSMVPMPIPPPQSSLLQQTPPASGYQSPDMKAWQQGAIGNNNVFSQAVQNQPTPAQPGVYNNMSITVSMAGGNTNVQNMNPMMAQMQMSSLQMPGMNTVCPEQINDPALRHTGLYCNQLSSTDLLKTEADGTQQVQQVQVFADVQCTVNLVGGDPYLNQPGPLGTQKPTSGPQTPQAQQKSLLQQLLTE

B1
IC50 [1]: ~1000 nM

B2
IC50 [1]: ~3800 nM

B3
Kd [2]: ~14 nM

B4
Kd [2]: ~6 nM
